Data reported in patent publication US20040096898A1 (MCMASTER UNIVERSITY, published 2004).
Ends that are not written are not given here.

Target: T1, PMCA398 (WVQKRPWLAESTPIYIQYFVKC) (conjugated through the terminus cysteine to keyhole limpet hemocyanin or ovalbumin)
T1 construct: Used as the KHLH conjugate (coated), as the free peptide (coated) and as the ovalbumin conjugate (eluting)
T1 peptide: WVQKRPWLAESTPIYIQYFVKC
Assay: phage display panning on coated peptide conjugate
Text: The peptide fragment from the PMCA protein is preferably from an extracellular domain of the PMCA protein. […] The inventors screened an MEK13 random peptide phage display library (New England Biolabs, USA) and identified a phage that bound to the PMCA398-keyhole limpet hemocyanin conjugate and eluted with the PMCA398-ovalbumin. Specific details on the screening assay are provided in Example 1. A peptide containing the 12 amino add recognition sequence and a spacer ([…]-amide, SEQ.ID.NO.1) was synthesized and subsequently termed caloxin 2A1.
1.4.4. Screening Procedure for PMCA398: The peptide PMCA398 is extremely hydrophobic. Therefore, it was conjugated at a lower (5:1 molar) ratio to KHLH and ovalbumin. The peptide and its conjugates could be used only at low concentrations as very fine suspensions. […] Therefore, a strategy of sequentially increasing selectivity was used. First three rounds of panning were conducted at low stringency. […] The selected phage were pooled. […] After three high stringency washes, a differential time elution was performed—at each time point replacing the elutant with new PBS. The idea was that the most tightly bound phage would elute last. The elution was at room temperature for 1, 2, 4, 8, 16 and then 120 min. The phage from 16 and 120 min elutants gave excellent results in selectivity assays. […]

B1: phage displaying the 12 amino acid peptide VSNSNWPSFPSS (peptide)
peptide: VSNSNWPSFPSS
modifications: also: displayed as a fusion on M13KE phage
notes: also called phage from 16 and 120 min elutants; consensus clone of the PMCA398 screen; not shown: rest of the M13KE phage display fusion (PhD12 library); not described
binding result: binds
